Test results from US20050112063A1, “Methods for inhibiting vascular permeability” (priority 2002, published 2005).
“Also recorded” adds a separate entry of the source.

How the values were obtained:
Mice [1] = experiment: Miles assay (induced vessel permeability); type: in vivo
Protocol: One of the problems with angiogenesis-dependent diseases is increased vessel permeability (due to high levels of VPF) which results in edema and loss of proteins. A decrease in vessel permeability is beneficial in those diseases. […] Briefly, a dye, Evans Blue (1% in PBS), was injected i.v. to anesthesized mice. After 10 min, human recombinant VEGF165 (50 ng/50 μl) was injected intradermally into the back skin. Leakage of protein-bound dye was detected as blue spots on the underside of the back skin surrounding the injection site. After 20 min mice were euthanized. Then, the skin was excised, left in formamide for 5 days to be extracted and the solution read at 620 nm. Putative angiogenesis inhibitors such as free and conjugated TNP-470 were injected daily 3 days (30 mg/kg/day) prior to the VEGF challenge. The same was repeated on tumor-bearing mice to evaluate the effect of angiogenesis inhibitors on tumor vessel permeability.

[2] = system: Bovine adrenal capillary endothelial cells; experiment: BCE proliferation assay; type: cell-based; details: challenged with bFGF, 72 h; data not shown
Protocol: Bovine adrenal capillary endothelial cells were seeded on gelatinized plates (15,000/well). Following 24 h incubation, cells were challenged with free and conjugated TNP-470, and bFGF (1 ng/ml) was added to the medium. Cells were counted after 72 h.

[3] = system: Aortic arches from day-14 chick embryos; experiment: Chick aortic ring assay; type: cell-based
Protocol: Aortic arches were dissected from day-14 chick embryos and cut into cross-sectional fragments, everted to expose the endothelium, and explanted in Matrigel. When cultured in serum-free MCDB-131 medium, endothelial cells outgrow and three-dimensional vascular channel formation occurred within […]. Free and conjugated TNP-470 were added to the culture.

[4] = system: A2058 human melanoma-bearing mice; experiment: Miles assay on tumor-bearing mice (tumor vessel permeability); type: in vivo; details: 30 mg/kg/day for three days
Protocol: One of the problems with angiogenesis-dependent diseases is increased vessel permeability (due to high levels of VPF) which results in edema and loss of proteins. A decrease in vessel permeability is beneficial in those diseases. We have found, using the Miles assay ([…], et al., Cancer Res, 56:172-181 (1996)), that free and bound TNP-470 block permeability. Briefly, a dye, Evans Blue (1% in PBS), was injected i.v. to anesthesized mice. After 10 min, human recombinant VEGF165 (50 ng/50 μl) was injected intradermally into the back skin. Leakage of protein-bound dye was detected as blue spots on the underside of the back skin surrounding the injection site. After 20 min mice were euthanized. Then, the skin was excised, left in formamide for 5 days to be extracted and the solution read at 620 nm. Putative angiogenesis inhibitors such as free and conjugated TNP-470 were injected daily 3 days (30 mg/kg/day) prior to the VEGF challenge. The same was repeated on tumor-bearing mice to evaluate the effect of angiogenesis inhibitors on tumor vessel permeability.

lungs = experiment: IL-2 induced pulmonary edema, relative weight of the lungs; type: in vivo; details: 3 days treatment, edema induced with IL-2 i.m. (FIG. 12)
FVB/NJ mice = experiment: Evans Blue dye extravasation in skin after intradermal VEGF; type: in vivo
Protocol: (§1) The antiangiogenic factor (endostatin) was injected intraperitoneally to FVB/NJ mice for 4 days. Immediately after the last injection, mice were anasthesized and received intravenous injection of 100 μl Evans Blue dye (1% in PBS). Subsequently, different amounts of VEGF165, VEGF121 or saline were injected intradermaly. After 20 minutes, mice were sacrificed and skin flap from the back was removed and photographed. Skin samples from the injection sites were excised and incubated in formamide for 5 days in order to extract the dye and O.D. was measured at 620 nm. […] Quantitative analysis of Evans Blue dye extravasation (FIG. 1) confirmed the lower skin capillary permeability of the antiangiogenic factor-treated mice and indicated the weak permeability-inducing effect of VEGF in these mice.

Nude mice = experiment: Evans Blue dye extravasation in skin after intradermal PAF; type: in vivo
Protocol: as §1
In order to test if the effects of the antiangiogenic factor (endostatin) on vascular permeability is VEGF-specific, we have tested the effects of intradermal injection of platelet-activating factor (PAF) in Nude mice that were previously injected with the antiangiogenic factor and in control mice, as described above. […] Quantitative analysis of Evans Blue dye extravasation (FIG. 2) confirmed the lower skin capillary permeability of the antiangiogenic factor-treated mice compared with control and the lack of PAF-induced hyperpermeability in these mice. […]

mice (SCID) = experiment: Duration of exposure: Alzet pump, skin vessel permeability with Evans Blue; type: in vivo
Protocol: In order to test if continuous exposure to the antiangiogenic factor (endostatin) is required to repress blood vessel permeability, mice (SCID) were anesthetized and “Alzet” pumps loaded with the antiangiogenic factor or saline were implanted intraperitoneally. The pumps release 1 μl the antiangiogenic factor per hour. Skin vessel permeability using Evans Blue dye was performed as described above. Saline and the antiangiogenic factor treated mice were examined 2, 3 and 4 days after pump implantation, as described above (FIG. 3). […] In both groups, PAF injection induced higher vessel permeability than saline injection. […] However, in both groups PAF injection induced higher vessel permeability than saline injection. […] Since the tumor vessels are continuously permeabilized and plasma proteins contained within the tumor support its vascularization the anti-permeability effect of the antiangiogenic factor offers a possible mechanism for its anti-tumor activity.

[5] = system: Bovine capillary endothelial cells (BCE); experiment: In vitro diffusion of FITC-dextran through endothelial cell monolayer (Transwells); type: cell-based
Protocol: The effects of the antiangiogenic factor (endostatin) on skin vessel permeability in vivo were tested in an in vitro diffusion model designed to mimic blood vessel permeability. Bovine capillary endothelial cells (BCE) were seeded in collagen coated inserts of “Transwells” and grown to confluence. The antiangiogenic factor was added every 24 hours. Four days later the inserts were washed with BCE culture medium and the following tracers and permeability regulators were added to the inserts. Half of the inserts received 5 mg/ml FITC-labeled dextran 10 kDa and the other half received 5 mg/ml FITC-labeled dextran 70 kDa. In addition, some inserts received 50 ng/ml VEGF165 or 100 nM PAF. Control inserts received BCE culture medium with fluorescent tracers only. The fluorescence in the lower wells was measured after 10, 20, 30, 45 and 60 minutes by transferring the inserts into new wells.
In order to follow the kinetic of the diffusion process, the flow of the tracer was calculated as fluorescent counts per minute (FIGS. 5 and 6). […] In contrast, the flow in control cells was constant and was lower than that observed in PAF and VEGF165-treated cells.

Mice [6] = experiment: Swelling of lung tissue in mice injected with micro-encapsulated VEGF-producing cells; type: in vivo; details: VEGF producing cells together with endostatin producing cells, 5 days
From the text: Dilation of the lung tissue may result in lung dysfunction and development of pulmonary hypertension. Mice injected with micro-encapsulated cells producing VEGF (approximately 0.5×10^6 cells per mouse) developed thickened lung parenchyma 5 days after injection. At a higher magnification we observed generation of several cell layers between the alveoli compared with one layer of cells in mice injected with micro-encapsulated control cells or with micro-encapsulated cells producing endostatin (Endost). […] Moreover, treatment with endostatin reduced the number of cell layers between the alveoli and the lungs of mice that were treated with endostatin appeared similar to control mice. Therefore, endostatin appears to block the swelling of lung tissue and may be used for treatment of pulmonary hypertension.

[7] = system: Bovine capillary endothelial cells (BCE); experiment: Immunostaining of tight junction proteins (β-catenin, occludin, ZO-1); type: cell-based
Protocol: Bovine capillary endothelial cells (BCE) were cultured in the presence of 0.2, 0.5 and 2 μg/ml human endostatin for three days. The cells were fixed and immunostained with anti-β-catenin, occludin, and ZO-1 antibodies (Zymed Laboratories, CA). The staining was developed using FITC-conjugated secondary antibodies and visualized under fluorescent microscopy. Immunostaining for β-catenin marked the cell borders and was more intense when two cells contacted each other. […] There was no difference in β-catenin staining between 0.5 and 2.0 μg/ml endostatin. […] Similar results were obtained with ZO-1 immunostaining. […] This is the first documentation of the effects of endostatin on tight junctions that may explain, in part, the mechanism of its antiangiogenic activities. Similar experiments were performed in which BCE were incubated in the presence and absence of 0.5 μg/ml endostatin for 3 days followed by stimulation with PAF for 20 minutes. The cells were fixed and immunostained with anti-α-catenin, occludin, and ZO-1 antibodies (Zymed Laboratories, CA), as described above.

Humans = experiment: Histamine-induced wheal and flare test in skin; type: in vivo; details: intradermal histamine
Protocol: Antiangiogenic treatment has entered into clinical trials recently. Molecules that are tested in phase 1 and 2 clinical trials include endostatin, angiostatin, TNP-470, thalidomide, anti-VEGF antibodies, PTK787, SU-5416, SU-6668 and others. […] Mice that received endostatin for several days had lower diffusion of Evans blue from the skin capillaries in response to intradermal VEGF and PAF injection compared with normal mice. The existing test of histamine-induced wheal and flare in skin can be used in order to test bioactivity of endostatin and other antiangiogenic factors. Intradermal injection of histamine leads to the formation of local adema ([…]) due to blood vessel hyperpermiability. […] This test will serve as an early surrogate marker for the bioactivity of endostatin and other antiangiogenic factors and help to determine the treatment's efficiency in individual patients.

O=C1CCC(N2C(=O)c3ccccc3C2=O)C(=O)N1 (centres unmarked) [Thalidomide]
vessel permeability (Mice [1]; FIGS. 9A-9D): no effect

CO[C@@H]1[C@H](OC(=O)NC(=O)CCl)CC[C@]2(CO2)[C@H]1[C@@]1(C)O[C@@H]1CC=C(C)C [TNP-470]
BCE cell growth [2]: inhibited | concentration that showed efficacy (reduced number and length of vascular sprouts) [3]: 50 pg/mL | VEGF, PAF and histamine-induced vascular leakage (Mice [1]; Miles assay, compared to control (FIGS. 8A-8E)): prevents | tumor vessel permeability [4]: decreased | pulmonary edema (relative weight of the lungs) (lungs): reduces pulmonary edema

B1: endostatin (protein, UniProt P39060 1572-1754, looked up)
Endostatin: HSHRDFQPVLHLVALNSPLSGGMRGIRGADFQCFQQARAVGLAGTFRAFLSSRLQDLYSIVRRADRAAVPIVNLKDELLFPSWEALFSGSEGPLKPGARIFSFDGKDVLRHPTWPQKSVWHGSDPNGRRLTESYCETWRTEAPSATGQASSLLGGRLLGQSAASCHHAYIVLCIENSFMTASK
modifications: Endostatin
notes: antiangiogenic factor; human endostatin used on BCE cells
Evans Blue dye leakage (skin capillary permeability) (FVB/NJ mice; injected intraperitoneally for 4 days, vs control): overall lower dye leakage than the control | induction of hyperpermeability by VEGF injection (FVB/NJ mice; intradermal VEGF165 or VEGF121, 4 days treatment): minor induction of hyperpermeability | PAF-induced vascular permeability (Nude mice; intradermal PAF): repressed | vascular permeability (skin flaps, Evans Blue) (Nude mice; vs control): inhibits vascular permeability | treatment time required to reduce skin vessel permeability (mice (SCID); Alzet pump intraperitoneally): at least 3 days | blood vessel permeability in response to PAF, saline vs treated mice (mice (SCID); day two after pump implantation): no significant difference | vessel permeability in saline treated mice compared with treated mice (mice (SCID); days three and four, saline and PAF injections): significantly higher vessel permeability than in the antiangiogenic factor treated mice | flow of the tracer (fluorescent counts per minute) ([5]; 10 kDa and 70 kDa dextrans, vs control cells): significant reduced flow; also recorded: lower than that of control cells | course of tracer flow over time ([5]; 60 minutes period): constant flow | sum of fluorescent count over 60 minutes ([5]; 4 days pre-treatment, vs control, VEGF165-treated and PAF-treated cells, 10 kDa and 70 kDa dextran): significantly lower fluorescent counts | reduction in fluorescent counts, 70 kDa compared with 10 kDa dextran ([5]; pre-treated BCE cells): more pronounced in the diffusion of 70 kDa dextran | accumulation of extracellular matrix in lung tissue (Mice [6]): no accumulation of extracellular matrix | cell layers between the alveoli (Mice [6]): fewer cell layers | PAF-induced reduction of staining intensity of β-catenin, occludin and ZO-1 ([7]; 0.5 μg/ml for 3 days, then PAF for 20 minutes): not in endostatin-treated cells | ZO-1 immunostaining ([7]; 0.2-2.0 μg/ml, three days): Cells boundaries were only visible in the presence | β-catenin staining, 0.5 versus 2.0 μg/ml ([7]; three days): no difference | histamine-induced zone of edema (Humans): reduced zone of edema
